Data reported in patent US20160244525A1.
Positions count from the first letter of the chain named. Blank lines part the entries; values can stand above or below the binder they belong to.

Columns and labels:
[1] = molecular target: FGFR2-IIIb (human) (UniProt P21802); experiment: SPR, IgG
[2] = molecular target: FGFR3-IIIb (human); experiment: blocking ELISA: FGFR3-IIIb-Fc captured on an anti-human Fc plate, antibody titrated, FGF-1 (with heparin) is the blocked ligand, bound FGF-1 read as OD450
Chain of FGFR3-IIIb (human) (chain, as listed by the source limits assumed): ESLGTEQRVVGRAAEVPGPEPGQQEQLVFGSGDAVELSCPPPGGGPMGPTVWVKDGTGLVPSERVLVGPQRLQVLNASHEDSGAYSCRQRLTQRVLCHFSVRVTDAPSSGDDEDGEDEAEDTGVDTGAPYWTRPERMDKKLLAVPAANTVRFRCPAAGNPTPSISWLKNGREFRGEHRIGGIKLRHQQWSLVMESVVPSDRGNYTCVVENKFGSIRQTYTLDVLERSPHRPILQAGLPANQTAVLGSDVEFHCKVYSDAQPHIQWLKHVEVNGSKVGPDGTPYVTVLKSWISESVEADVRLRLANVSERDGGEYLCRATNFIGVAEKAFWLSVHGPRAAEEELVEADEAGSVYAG

[3] = molecular target: FGFR2-IIIb (human) (UniProt P21802); experiment: blocking ELISA: FGFR2-IIIb-Fc captured on an anti-human Fc plate, antibody titrated, FGF-7 (with heparin) is the blocked ligand, bound FGF-7 read as OD450
[4] = molecular target: FGFR3-IIIb (human); experiment: SPR (Biacore T100), IgG captured by anti-human Fc, FGFR flowed
[5] = molecular target: FGFR2-IIIb (human) (UniProt P21802); experiment: as above
[6] = molecular target: FGFR2-IIIb (human) (UniProt P21802); experiment: SPR
[7] = molecular target: FGFR3-IIIb (human); experiment: SPR

Chain of FGFR2-IIIb (human) (P21802 other isoform, or with tags, fused parts or gaps limits assumed): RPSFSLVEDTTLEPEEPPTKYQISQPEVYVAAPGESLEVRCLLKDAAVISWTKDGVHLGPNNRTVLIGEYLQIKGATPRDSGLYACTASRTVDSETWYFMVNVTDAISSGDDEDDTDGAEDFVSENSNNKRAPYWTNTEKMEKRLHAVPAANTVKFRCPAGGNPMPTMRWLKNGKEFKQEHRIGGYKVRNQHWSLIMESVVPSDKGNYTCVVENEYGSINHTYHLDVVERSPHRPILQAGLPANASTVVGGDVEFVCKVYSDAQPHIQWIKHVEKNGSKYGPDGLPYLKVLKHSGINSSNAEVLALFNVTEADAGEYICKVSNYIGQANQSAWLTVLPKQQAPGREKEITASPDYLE

B1: 2B.1.3.10 (antibody, human IgG1, kappa, V domains shown)
VH: EVQLVESGGGLVQPGGSLRLSCAASGFPFTSQGISWVRQAPGKGLEWVGRTHLGDGSTNYADSVKGRFTISADTSKNTAYLQMNSLRAEDTAVYYCARTYGIYDTYDKYTEYVMDYWGQGTLVTVSS
VL: DIQMTQSPSSLSASVGDRVTITCRASQDVDTSLAWYKQKPGKAPKLLIYSASFLYSGVPSRFSGSGSGTDFTLTISSLQPEDFATYYCQQSTGHPQTFGQGTKVEIKR
- Kd [1]: 2.9 nM
- IC50 (read off the curve) [2]: 1 to 2 nM
- IC50 (read off the curve) [3]: 2 nM
- Kd [4]: 0.11 nM
- Kd [5]: 2.9 nM

B4: 2B.1.32 (antibody, human IgG1, kappa, V domains shown)
VH: B1 VH with P28T, Q32T, T51W, H52V, L53G, G54F, D55T, T105L, D107V, K108D
VL: B1 VL
- Kd [4]: 0.06 nM
- Kd [5]: 1.2 nM

B5: 2B.1.3.2 (antibody, human IgG1, kappa, V domains shown)
VH: B1 VH with P28T, Q32T, K108N
VL: B1 VL
- Kd [1]: 6.6 nM

B6: 2B.1.50 (antibody, human IgG1, kappa, V domains shown)
VH: B1 VH with P28T, Q32T, T51L, H52N, L53F, G54Y, D55S, T105L, D107V, K108D
VL: B1 VL
- Kd [5]: 2 nM

B7: 2B.1.35 (antibody, human IgG1, kappa, V domains shown)
VH: B1 VH with P28T, Q32T, T51W, L53P, G54F, D55R, T105L, D107V, K108D
VL: B1 VL
- Kd [5]: 9.4 nM

B8: 2B.1.9 (antibody, human IgG1, kappa, V domains shown)
VH: B1 VH with P28T, Q32T, T51Y, L53P, G54Y, D55L, T105L, D107V, K108D
VL: B1 VL
- Kd [5]: 1.4 nM

B9: 2B.1.33 (antibody, human IgG1, kappa, V domains shown)
VH: B1 VH with P28T, Q32T, T51Y, L53P, G54F, D55H, T105L, D107V, K108D
VL: B1 VL
- Kd [5]: 15 nM

B11: 2B.1.44 (antibody, human IgG1, kappa, V domains shown)
VH: B1 VH with P28T, Q32T, T51W, H52W, L53S, G54W, D55G, T105L, D107V, K108D
VL: B1 VL
- Kd [5]: 3.6 nM

B12: 2B.1.14 (antibody, human IgG1, kappa, V domains shown)
VH: B1 VH with P28T, Q32T, T51L, H52W, L53Y, G54F, T105L, D107V, K108D
VL: B1 VL
- Kd [5]: 1.6 nM

B13: 2B.1.30 (antibody, human IgG1, kappa, V domains shown)
VH: B1 VH with P28T, Q32T, T51V, H52S, L53F, G54F, D55S, T105L, D107V, K108D
VL: B1 VL
- Kd [5]: 4.1 nM

B14: 2B.1.1 (antibody, human IgG1, kappa, V domains shown)
VH: B1 VH with P28T, Q32T, T51Y, H52W, L53A, G54W, T105L, D107V, K108D
VL: B1 VL
- Kd [4]: 0.09 nM
- Kd [5]: 0.29 nM
- Kd [6]: 0.29 nM

B15: 2B.1.25 (antibody, human IgG1, kappa, V domains shown)
VH: B1 VH with P28T, Q32T, T51W, L53P, G54W, D55M, T105L, D107V, K108D
VL: B1 VL
- Kd [5]: 2.3 nM

B17: 2B.1.38 (antibody, human IgG1, kappa, V domains shown)
VH: B1 VH with P28T, Q32T, T51F, H52W, L53A, G54Y, T105L, D107V, K108D
VL: B1 VL
- Kd [5]: 1.1 nM

B21: 2B.1.3.8 (antibody, human IgG1, kappa, V domains shown)
VH: B1 VH with Q32L, T105I, D107E
VL: B1 VL
- Kd [1]: 1.4 nM

B22: 2B.1.3.12 (antibody, human IgG1, kappa, V domains shown)
VH: B1 VH with Q32T, K108M
VL: B1 VL
- Kd [1]: 3 nM
- IC50 (read off the curve) [2]: 1 to 2 nM
- IC50 (read off the curve) [3]: 2 nM
- Kd [4]: 0.5 nM
- Kd [5]: 3 nM
- Kd [7]: 0.5 nM
- Kd [6]: 3 nM

B24: 2B.1.3.4 (antibody, human IgG1, kappa, V domains shown)
VH: B1 VH with P28T, Q32T, T105I, D107G, K108G
VL: B1 VL
- Kd [1]: 5.8 nM

B27: 2B.1.28 (antibody, human IgG1, kappa, V domains shown)
VH: B1 VH with P28T, Q32T, T51F, H52W, L53A, G54W, D55S, T105L, D107V, K108D
VL: B1 VL
- Kd [5]: 1.8 nM

B28: 2B.1.49 (antibody, human IgG1, kappa, V domains shown)
VH: B1 VH with P28T, Q32T, T51L, H52S, L53F, G54F, D55S, T105L, D107V, K108D
VL: B1 VL
- Kd [5]: 1.3 nM

B30: 2B.1.20 (antibody, human IgG1, kappa, V domains shown)
VH: B1 VH with P28T, Q32T, T51L, H52D, L53V, G54F, D55W, T105L, D107V, K108D
VL: B1 VL
- Kd [5]: 1.2 nM

B33: 2B.1.52 (antibody, human IgG1, kappa, V domains shown)
VH: B1 VH with P28T, Q32T, T51F, H52S, T105L, D107V, K108D
VL: B1 VL
- Kd [5]: 3.9 nM

B34: 2B.1.3.6 (antibody, human IgG1, kappa, V domains shown)
VH: B1 VH with P28T, Q32T, K108E
VL: B1 VL
- Kd [1]: 5.9 nM

B35: 2B.1.55 (antibody, human IgG1, kappa, V domains shown)
VH: B1 VH with P28T, Q32T, T51V, H52D, L53V, G54F, D55W, T105L, D107V, K108D
VL: B1 VL
- Kd [5]: 5.9 nM

Further lines, results first:

- Kd [5]: 1.3 nM
B2: 2B.1.86 (antibody, human IgG1, kappa, V domains shown)
VH: B1 VH with P28T, Q32T, T51L, H52S, L53F, G54W, D55T, T105L, D107V, K108D
VL: B1 VL

- Kd [4]: 0.19 nM
- Kd [5]: 1.8 nM
B3: 2B.1.95 (antibody, human IgG1, kappa, V domains shown)
VH: B1 VH with P28T, Q32T, T51L, H52I, L53F, G54F, D55T, T105L, D107V, K108D
VL: B1 VL

- Kd [5]: 5.1 nM
B10: 2B.1.93 (antibody, human IgG1, kappa, V domains shown)
VH: B1 VH with P28T, Q32T, T51I, H52D, L53N, G54Y, D55W, T105L, D107V, K108D
VL: B1 VL

- Kd [5]: 2.1 nM
B16: 2B.1.81 (antibody, human IgG1, kappa, V domains shown)
VH: B1 VH with P28T, Q32T, T51V, H52N, L53N, G54F, D55Y, T105L, D107V, K108D
VL: B1 VL

- Kd [5]: 17 nM
B18: 2B.1.80 (antibody, human IgG1, kappa, V domains shown)
VH: B1 VH with P28T, Q32T, T51Y, H52W, L53A, G54F, D55S, T105L, D107V, K108D
VL: B1 VL

- Kd [5]: 3.2 nM
B19: 2B.1.78 (antibody, human IgG1, kappa, V domains shown)
VH: B1 VH with P28T, Q32T, T51L, H52S, L53F, G54Y, D55S, T105L, D107V, K108D
VL: B1 VL

- Kd [5]: 4.9 nM
B20: 2B.1.82 (antibody, human IgG1, kappa, V domains shown)
VH: B1 VH with P28T, Q32T, T51I, H52N, L53F, G54F, D55S, T105L, D107V, K108D
VL: B1 VL

- Kd [4]: 0.05 nM
- Kd [5]: 0.64 nM
B23: 2B.1.88 (antibody, human IgG1, kappa, V domains shown)
VH: B1 VH with P28T, Q32T, T51I, H52W, L53M, G54F, D55T, T105L, D107V, K108D
VL: B1 VL

- Kd [5]: 1.6 nM
B25: 2B.1.71 (antibody, human IgG1, kappa, V domains shown)
VH: B1 VH with P28T, Q32T, T51V, H52W, L53M, G54F, T105L, D107V, K108D
VL: B1 VL

- Kd [5]: 3.5 nM
B26: 2B.1.72 (antibody, human IgG1, kappa, V domains shown)
VH: B1 VH with P28T, Q32T, T51V, L53P, G54F, D55E, T105L, D107V, K108D
VL: B1 VL

- Kd [5]: 3.1 nM
B29: 2B.1.94 (antibody, human IgG1, kappa, V domains shown)
VH: B1 VH with P28T, Q32T, T51L, H52V, L53F, G54F, D55S, T105L, D107V, K108D
VL: B1 VL

- Kd [5]: 2.7 nM
B31: 2B.1.65 (antibody, human IgG1, kappa, V domains shown)
VH: B1 VH with P28T, Q32T, T51Y, H52N, L53A, G54Y, D55T, T105L, D107V, K108D
VL: B1 VL

- Kd [5]: 1.4 nM
B32: 2B.1.74 (antibody, human IgG1, kappa, V domains shown)
VH: B1 VH with P28T, Q32T, T51Y, L53P, G54F, D55R, T105L, D107V, K108D
VL: B1 VL

- Kd [4]: 0.09 nM
- Kd [5]: 1.4 nM
B36: 2B.1.73 (antibody, human IgG1, kappa, V domains shown)
VH: B1 VH with P28T, Q32T, T51M, H52I, L53F, G54Y, D55N, T105L, D107V, K108D
VL: B1 VL
